The experiment addresses human IL-12 receptor (b1 and b2 chain) (human) (UniProt P42701). In words: cell-based or functional assay.

Sequence of human IL-12 receptor (b1 and b2 chain) (human) (Q99665 24-862, chain 2 of 2, other chains not shown): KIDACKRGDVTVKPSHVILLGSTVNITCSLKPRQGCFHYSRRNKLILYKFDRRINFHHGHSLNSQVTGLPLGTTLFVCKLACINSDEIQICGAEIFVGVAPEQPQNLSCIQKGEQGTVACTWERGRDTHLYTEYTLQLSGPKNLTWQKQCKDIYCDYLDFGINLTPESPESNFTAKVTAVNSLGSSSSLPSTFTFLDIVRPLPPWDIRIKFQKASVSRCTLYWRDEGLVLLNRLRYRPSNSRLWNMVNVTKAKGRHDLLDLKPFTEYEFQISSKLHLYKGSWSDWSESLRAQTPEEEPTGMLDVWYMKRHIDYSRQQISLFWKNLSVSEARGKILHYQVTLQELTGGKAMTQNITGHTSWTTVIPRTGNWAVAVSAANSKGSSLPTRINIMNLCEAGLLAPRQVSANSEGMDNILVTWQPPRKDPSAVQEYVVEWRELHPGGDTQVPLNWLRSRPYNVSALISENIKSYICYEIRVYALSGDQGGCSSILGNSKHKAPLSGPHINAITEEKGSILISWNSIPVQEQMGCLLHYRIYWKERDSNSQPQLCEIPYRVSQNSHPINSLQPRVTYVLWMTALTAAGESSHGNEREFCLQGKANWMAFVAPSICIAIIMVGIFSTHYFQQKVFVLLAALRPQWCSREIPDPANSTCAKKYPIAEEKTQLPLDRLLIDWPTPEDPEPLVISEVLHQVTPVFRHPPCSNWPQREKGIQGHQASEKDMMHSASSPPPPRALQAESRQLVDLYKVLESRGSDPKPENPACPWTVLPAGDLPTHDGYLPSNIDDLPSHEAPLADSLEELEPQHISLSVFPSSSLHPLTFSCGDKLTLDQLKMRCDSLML
Sequence of Human recombinant IL-12 (P29460 23-328 limits assumed): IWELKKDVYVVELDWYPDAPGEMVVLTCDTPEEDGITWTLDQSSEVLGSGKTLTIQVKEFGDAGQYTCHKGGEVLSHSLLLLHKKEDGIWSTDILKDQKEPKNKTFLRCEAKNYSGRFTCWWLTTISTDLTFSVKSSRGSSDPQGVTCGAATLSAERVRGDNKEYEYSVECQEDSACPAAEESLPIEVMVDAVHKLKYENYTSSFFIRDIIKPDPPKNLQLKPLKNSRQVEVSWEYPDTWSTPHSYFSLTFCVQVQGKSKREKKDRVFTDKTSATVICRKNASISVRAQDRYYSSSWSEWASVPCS
Sequence of Human recombinant IL-12 (P29459 23-219 limits assumed): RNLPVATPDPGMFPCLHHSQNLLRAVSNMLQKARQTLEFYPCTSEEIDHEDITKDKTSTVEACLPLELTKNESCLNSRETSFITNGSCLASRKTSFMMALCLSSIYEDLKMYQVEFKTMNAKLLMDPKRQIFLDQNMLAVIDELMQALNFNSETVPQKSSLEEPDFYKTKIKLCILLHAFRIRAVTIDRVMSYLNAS

On to “Human recombinant IL-12 (from UniProt P29460 23-328; P29459 23-219) (ligand)”, for which the E-max (Maximal response), p-STAT4 positive cells, CD8+ T cells and NK cells lay in the range of 60 to 80%; the EC50 of p-STAT4 induction in human PBMC, CD4+ T cells is 0.072 nM; the EC50 of p-STAT4 induction in human PBMC, CD8+ T cells amounted to 0.045 nM; the EC50 of p-STAT4 induction in human PBMC, NK cells is 0.166 nM.

Source of the values: US20250051413A1.
